Results on three molecules are retold here after patent US20250179195A1.

The chains are these.
B1: Fab fragment of antibody 17566 (Fab, V domains shown)
VH: QVTLKESGPVLVKPTETLTLTCTVSGFSFNNARMGVNWIRQPPGKALEWLAHIFSNDEKSYSTSLKSRLTISKDISKSQVVLTMTNMDPVDTATYYCARIVGYGSGWRLLGDYWGQGTLVTVSS
VL: AIQMTQSPSSLSASVGDRVTITCRASQGITNDLGWYQQKPGKAPKLLIYAASSLQSGVPSRFSGSGSGTDFTLTISSLQPEDFATYYCLQDYNYPWTFGQGTKVEIK
B2: Fab fragment of antibody 17543 (Fab, V domains shown)
VH: QVTLKESGPVLVKPTETLTLTCTVSGFSLINARMGVTWIRQPPGKALEWLAHIFSNDEKSYSTSLKSRLTISKDTSKSQVVLTMTNMDPVDTATYYCARIPGYSRGWDYYYYGMDVWGQGTMVTVSS
VL: DIQMTQSPSSLSASVGDRVTITCRASQGIRNDLGWYQQKPGKAPKRLIYAASTLQSGVPSRFSGSGSGTEFTLTISSLQPEDFATYYCLQHNSYPWTFGQGTKVEIK
B3: Fab fragment of antibody 17497 (Fab, V domains shown)
VH: QVQLQESGPGLVKPSGTLSLTCAVSGGSISSTNWWSWVRQPPGKGLEWIGEISHRGSTNYNPSLKSRVTISVDKSKNQFSLKLSSVTAADTAVYYCARDPEMTLYYYYGMDVWGQGTTVTVSS
VL: DIQMTQSPSSLSASVGDRVTITCRASRGIRNDLGWYQQKPGKAPKRLIYAASSLQSGVPSRFSGSGSGTEFTLTISSLQPEDFATYYCLQHNSYPLTFGGGTKVEIK

The test has as its target human FLT3 domain 1 Fc fusion protein (wild type) (human) (UniProt P36888). The test can be described thus: SPR (Carterra LSA); FLT3 D1-Fc captured on anti-human Ig Fc, Fab as analyte; mean ± SEM, n=4.
In the case of B1, the Kd (as a rule, the constant that tells how readily two partners part at equilibrium) was found to be 5.2 nM; the koff (as a rule, the rate constant with which the complex falls apart) was 0.0046 s⁻¹; the kon (usually the rate constant with which the complex forms) worked out at 890000 M⁻¹ s⁻¹.
For B2, in that order: 19.3 nM, 0.0099 s⁻¹ and 520000 M⁻¹ s⁻¹.
For B3, in that order: 3.1 nM, 0.003 s⁻¹ and 980000 M⁻¹ s⁻¹.
